Test results: patent US20130145485

Columns and labels:
Assay in all cases: cell_activity
[1] = test system: ZFN 32398 (synthetic construct); conditions: pair 32401/32398, DLSSA reporter in Neuro2A; pVAX control 0.16
[2] = test system: ZFN 9940 (synthetic construct); conditions: pair 12897/9940 with donor, CF iPS cells; 21 of 64 clones; scale: % puroR clones with targeted insertion
[3] = test system: ZFN 32366 (synthetic construct); conditions: pair 32365/32366, K562 cells
[4] = test system: ZFN 12897 (synthetic construct); conditions: pair 12897/9940 with donor, CF iPS cells; 21 of 64 clones; scale: % puroR clones with targeted insertion
[5] = test system: ZFN 32365 (synthetic construct); conditions: pair 32365/32366, K562 cells
[6] = test system: ZFN 32376 (synthetic construct); conditions: pair 32375/32376, K562 cells
[7] = test system: ZFN 32401 (synthetic construct); conditions: pair 32401/32398, DLSSA reporter in Neuro2A; pVAX control 0.16
[8] = test system: ZFN 32375 (synthetic construct); conditions: pair 32375/32376, K562 cells

Work on “ACACCAATGATATTTTCTTTAATGGTGC (double strand) [32398 target site]” yielded an activity (firefly/renilla ratio) [1] of 1.45.
In the case of “AGTGATTATGGGAGAACTGGATGTTCACAGTCAGTCCACACGTC (double strand) [9940 target site]”, the activity [2] is reported as 33.
“ATATAGATACAGAAGCGTCATCAAAGCA (double strand) [32366 target site]” gave an activity [3] of 9 % indels.
“ATTAGAAGTGAAGTCTGGAAATAAAACC (double strand) [12897 target site]” gave an activity [4] of 33.
“CATCATAGGAAACACCAAAGATGATATT (double strand) [32365 target site]” showed an activity [5] of 9 % indels.
“CCAACTAGAAGAGGTAAGAAACTATGTG (double strand) [32376 target site]” showed an activity [6] of 12 % indels.
Sequence “CCTATGATGAATATAGATACAGAAGCGT (double strand) [32401 target site]” has an activity (firefly/renilla ratio) [7] of 1.45.
Work on “GCTTTGATGACGCTTCTGTATCTATATT (double strand) [32375 target site]” yielded an activity [8] of 12 % indels.
